T1: baculovirus-expressed S. purpuratus katanin p80 subunit with N-terminal His(6) tag (Strongylocentrotus purpuratus, UniProt O61585 1-690)
T1 construct: Expressed in Sf9 cells and purified on Ni-NTA; GenBank AF052433; also called p80 katanin; recombinant p80
T1 sequence: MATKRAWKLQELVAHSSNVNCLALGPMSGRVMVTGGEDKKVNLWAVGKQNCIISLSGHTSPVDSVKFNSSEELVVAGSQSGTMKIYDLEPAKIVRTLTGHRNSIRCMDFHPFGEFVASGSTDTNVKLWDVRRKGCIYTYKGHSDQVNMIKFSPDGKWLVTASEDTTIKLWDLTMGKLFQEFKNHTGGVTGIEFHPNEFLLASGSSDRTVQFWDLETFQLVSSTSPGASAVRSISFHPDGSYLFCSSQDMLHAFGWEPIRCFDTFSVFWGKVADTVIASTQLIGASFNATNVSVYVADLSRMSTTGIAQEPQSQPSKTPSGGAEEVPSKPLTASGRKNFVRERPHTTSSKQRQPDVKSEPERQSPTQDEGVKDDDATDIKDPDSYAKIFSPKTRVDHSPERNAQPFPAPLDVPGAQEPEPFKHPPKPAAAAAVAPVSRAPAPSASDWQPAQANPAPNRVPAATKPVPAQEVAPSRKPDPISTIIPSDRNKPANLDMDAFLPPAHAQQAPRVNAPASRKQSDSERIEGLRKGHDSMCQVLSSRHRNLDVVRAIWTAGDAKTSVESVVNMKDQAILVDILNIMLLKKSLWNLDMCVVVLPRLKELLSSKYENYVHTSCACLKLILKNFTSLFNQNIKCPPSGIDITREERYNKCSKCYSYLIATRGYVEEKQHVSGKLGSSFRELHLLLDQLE

T2: p80 delta 560-690, S. purpuratus p80 katanin deletion lacking the C-terminal 130 amino acids, with N-terminal … (Strongylocentrotus purpuratus, UniProt O61585 1-559)
T2 construct: Residues 560-690 deleted by the construct's name; The text says 'C-terminal 130 amino acids', but 560-690 counts 131 residues; also called 560-690 deletion derivative of p80; not shown: 37 amino acid N-terminal S-Tag from pCITE-4a+
T2 sequence: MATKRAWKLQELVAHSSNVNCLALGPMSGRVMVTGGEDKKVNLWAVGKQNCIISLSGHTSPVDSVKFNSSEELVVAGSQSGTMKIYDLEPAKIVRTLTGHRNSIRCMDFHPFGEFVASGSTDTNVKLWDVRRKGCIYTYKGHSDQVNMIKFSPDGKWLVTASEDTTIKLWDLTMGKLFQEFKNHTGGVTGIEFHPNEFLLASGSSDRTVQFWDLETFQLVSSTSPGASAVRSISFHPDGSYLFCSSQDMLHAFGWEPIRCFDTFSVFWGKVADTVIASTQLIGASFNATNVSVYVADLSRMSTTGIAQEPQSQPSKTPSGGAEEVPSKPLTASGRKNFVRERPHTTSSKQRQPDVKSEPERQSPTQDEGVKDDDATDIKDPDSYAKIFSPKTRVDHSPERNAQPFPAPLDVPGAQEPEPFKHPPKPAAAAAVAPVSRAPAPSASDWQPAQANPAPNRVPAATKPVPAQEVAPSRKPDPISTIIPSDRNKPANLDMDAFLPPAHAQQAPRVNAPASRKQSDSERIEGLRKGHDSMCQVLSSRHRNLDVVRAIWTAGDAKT

B1: baculovirus-expressed S. purpuratus katanin p60 subunit with N-terminal His(6) tag (enzyme, not shown: small tags and cut ends)
chain: MSVDEICENTKMGREYALLGNYETSLVYYQGVLQQIQKLLTSVHEPQRKHQWQTIRQELSQEYEHVKNITKTLNGFKSEPAAPEPAPNHGRAAPFSHHQHAAKPAAAEPARDPDVWPPPTPVDHRPSPPYQRAARKDPPRRSEPSKPANRAPGNDRGGRGPSDRRGDARSGGGGRGGARGSDKDKNRGGKSDKDKKAPSGEEGDEKKFDPAGYDKDLVENLERDIVQRNPNVHWADIAGLTEAKRLLEEAVVLPLWMPDYFKGIRRPWKGVLMVGPPGTGKTMLAKAVATECGTTFFNVSSASLTSKYHGESEKLVRLLFEMARFYAPSTIFIDEIDSICSKRGTGSEHEASRRVKSELLIQMDGVSGPSAGEESSKMVMVLAATNFPWDIDEALRRRLEKRIYIPLPEIDGREQLLRINLKEVPLADDIDLKSIAEKMDGYSGADITNVCRDASMMAMRRRIQGLRPEEIRHIPKEELNQPSTPADFLLALQKVSKSVGKEDLVKYMAWMEEFGSV
notes: Expressed in Sf9 cells and purified on Ni-NTA; also called p60 katanin; recombinant p60
B2: in vitro translated S. purpuratus p60 katanin with 37 amino acid N-terminal S-Tag (enzyme)
chain: B1 chain
notes: Made in a rabbit reticulocyte transcription-translation reaction; not shown: 37 amino acid N-terminal S-Tag from pCITE-4a+
B3: p80 delta 303-690, C-terminal truncation of S. purpuratus p80 katanin containing only the WD40 domain, with N-terminal S-Tag (other)
chain: MATKRAWKLQELVAHSSNVNCLALGPMSGRVMVTGGEDKKVNLWAVGKQNCIISLSGHTSPVDSVKFNSSEELVVAGSQSGTMKIYDLEPAKIVRTLTGHRNSIRCMDFHPFGEFVASGSTDTNVKLWDVRRKGCIYTYKGHSDQVNMIKFSPDGKWLVTASEDTTIKLWDLTMGKLFQEFKNHTGGVTGIEFHPNEFLLASGSSDRTVQFWDLETFQLVSSTSPGASAVRSISFHPDGSYLFCSSQDMLHAFGWEPIRCFDTFSVFWGKVADTVIASTQLIGASFNATNVSVYVADLSRMS
notes: not shown: 37 amino acid N-terminal S-Tag from pCITE-4a+

Series [1] deals with the molecule itself. Kind of series: rotary-shadowing electron microscopy of recombinant p60.
Series [2] has as its target T1, baculovirus-expressed S. purpuratus …. Kind of series: co-expression in insect cells, metal affinity purification, Coomassie staining. The method, then:
6×His-tagged katanin subunits were purified from lysates of baculovirus-infected insect cells by binding to Ni^2+-NTA Superflow followed by elution with imidazole, as described in the Experimental Procedures. […] Proteins bound to the resin were analyzed by SDS-PAGE followed by staining with Coomassie.
Deciphering the roles of the two katanin subunits is essential for understanding the enzyme's mechanism and biological activities. […] We therefore sought to express the two subunits together and separately and then test their enzymatic activities.

For series [3], the target named is T2, p80 delta 560-690, S. purpuratus p80 …. Kind of series: in vitro co-translation, immunoprecipitation with anti-p60 antibody, S-protein HRP blot. On the procedure: (§1) In vitro synthesis of proteins directly from plasmid DNAs was accomplished using the Single Tube Protein System 2, T7 (Novagen). […] For immunoprecipitations, lysates were incubated on ice with Pansorbin (Calbiochem)-antibody complexes, washed in NET buffer (50 mM Tris-Cl (pH 7.5), 150 mM NaCl, 0.1% Nonidet P-40, 1 mM EDTA (pH 8.0), 0.25% gelatin 0.02% sodium azide), then resuspended in SDS-PAGE sample buffer. In vitro translation products in both the pellets and supernatants from the immunoprecipitations were resolved by SDS-PAGE, transferred to nitrocellulose, probed with S-protein HRP conjugate (Novagen) and detected by chemiluminescence.

The target in series [4] is B2. Described as above. On the procedure:
as §1

For B1, the binding result in series [1] was “binds”. Moreover, the “p60:p80 molar ratio in the co-purified protein” value in series [2] is roughly 0.9 mol p80 per 1.0 mol p60.
For B2, the binding result in series [3] is “no binding”.
Turning to B3, in series [4], the binding result was “no binding”.

The record behind these values is patent US6699969 (University of California, dated 2004).
